Literature values in PMC8805269.

Target: Swi6 CSD (Schizosaccharomyces pombe) (UniProt P40381)

## Swi6 CSD (from UniProt P40381)
  Kd: < 17 nM
